Assay: soluble on expression in E. coli; label from the status in PepcDB or PDB records

| Sequence | soluble on expression in E. coli |
| --- | --- |
| MSLSIKLIAVDMDGTFLSDQKTYNRERFMAQYQQMKAQGIRFVVASGNQYYQLISFFPEIANEIAFVAENGGWVVSEGKDVFNGELSKDAFATVVEHLLTRPEVEIIACGKNSAYTLKKYDDAMKTVAEMYYHRLEYVDNFDNLEDIFFKFGLNLSDELIPQVQKALHEAIGDIMVPVHTGNGSIDLIIPGVHKANGLRQLQKLWGIDDSEVVVFGDGGNDIEMLRQAGFSFAMENAGSAVVAAAKYRAGSNNREGVLDVIDKVLKHEAPFKEGHHHHHH | soluble |
| MGSDKIHHHHHHMGVRQKKIAAHDLEIGMFVSDLDRPWHQTPFPIQGFYLRSENDLKAVVSHCKWVMIDVAETREEITLGSDKVRPFARRSSARSGGREELQLAPLSIREPVVYKNDVPLRKELKASRKLLNDAELALSRMFETIRDDQMPDLRPAAEVTRRMVESVIRQPNALLWLSRTRQYDDFVYRHALNTAVWALVCGRQLGLNEGLLNHLGVGCLLSQVGKTALPKEMLAREHQLSTEEYATYRTYVERGCQMLEGAGLSRAVMSVVQGHRERHNGSGFPQGIRGDRIPLLAKVAGIAEFFESLIAPRDDQDPMTPAKAVSLLYDMRNIEFQEDLVEAFIQGVGVYPTGTLVELSDGQRGIVVSHSPGRRLWPSVMVMQDAEHRPLKSARIVDLARHIESRAASELLTVRECLPHGTDGLDPAGFDVTGAESRWSLGKLINR | not soluble |
| GPGSMMTEATTTPVETPIVCNIRDAAGLEGKLVTFKGWAYHIRKARKTLIFVELRDGSGYCQCVIFGKELCEPEKVKLLTRECSLEITGRLNAYAGKNHPPEIADILNLEMQVTEWKVIGESPIDLENIINKDSSIPQKMQNRHIVIRSEHTQQVLQLRSEIQWYFRKYYHDNHFTEIQPPTIVKTQCEGGSTLFKLQYFNEPAYLTQSSQLYLESVIASLGKSFCMLSSYRAEQSRTVRHLAEYLHLEAELPFISFEDLLNHLEDLVCTVIDNVMAVHGDKIRKMNPHLKLPTRPFKRMTYADAIKYCNDHGILNKDKPFEYGEDISEKPERQMTDEIGCPIFMIHFPSKMKAFYMSKVPGHPDLTESVDLLMPGVGEIVGGSMRIWNYDELMGAYKANGLNPDPYYWYTQQRKYGSCPHGGYGLGVERLVMWLLGEDHIRKVCLYPRYLERCEP | soluble |
| MLVNTKAKVGVFSIALGAYLPQFPSLVPEFEAQYEAFKKTIPDTVEIIDGGMVTTKEQSMVAGDKFRAADVDIVFLQMLTYATSYNMLPAIRDLDVPVVLVNVQKLKALDYDHTDIAAWLGEGYACGAVGEAVADLERAGKRHAVITGVVEGGDPAVQAEIEDWCKAAQVRRRFRDTNIAQIGRPYPGMMDLYIDETNLYNRMFLYTKQFDWEKMWAIADDITDEEAIRAKAQDILDTFDIEDGGTIEKVWDMAKYVVAFEKWVKDEHLSMVASHYDGFAQGKAGVLDSMLIPAFSMLIKQGTACAVEGDMKVAMAMSILKTISGTGQLSEMYSIDFNEDICIIGHSGSGDADISDKKPTMKIVPVFHGKTGGGYLTQFYPYTGPVTYLAITQDKDGHFKFVVAEGVNEEGPILSFGDTNMRTRFTCGAREFVNRWSEAGPTHHMAAATGRHIDTILKVAKIFNIPVDIVTR | not soluble |
| VGVAVDRDELLGANAPPQGGSFRFYLDGERWEWSDSVARMHGYQPGEVIPTNEILLSHKHPDDQSQVAALFDKMIHAGEPFSSKHRIIDTDRRIHHVIVVGDRMLDENGQVIGTSGYYIDVTETLETDLREFNEALTEAVAGLEKSRAVIEQAKGALMLVYGISSERAFGILTWRSQETNIKLHTLAERFVGALAAEATLPASFRARFDHLLLTAHEYPDEQADHPA | not soluble |
| MAPLLHQVSNYGYGKCVTVRFCDGKTYDAKDGESRAINRDLNVGAVKIYRDSKDEDQAYVLNYFPYNLELNDNRGKNKGLQGYRVLIWKQYGTINLDVFYDEMKIWCKTNDLGIYTSDGELKYYKSVIARHREEGGISVIGFETAEGATTAAAKKEEDENEEASAKVKEANEEESTNA | soluble |
| MMEDGNYIINPWVYTDRMGMYRILLEETAMYFAKYGPENEQNLLWGLPLQFGWQYQSGRLADPTGMTDCGNELNESLCVSVDSWWADINYYLSVIPFLAAVDSGITGISPNQITILPPPKDQMRFCYNVSDCQSAVPGTMNRWRDFFQYMQLNSSDFDGLLNYLWEAHASSLDYPTSAFGDRYNFYSEKEANFEENWAIAVNYLAAARLPTTQNRTYSFQRGLPPRVLVDTDIAPFIPDFTPLQNEVLVSLKLLGDTDRNSGSLSLTLWENLMSTKLARTLFLKAFEEFLVTSS | soluble |
| MQVKLGFTEHSFNLIVSSTSMFKNLLASVGIGAAKVDTRLFNNSVIPGGILEGEVYIRGGDVAQDIQDIYLKLATEYQREVDDSTVTEECVMVNYRLLEHLTIQPKEEVVIPFSLNLPDEMPLTFGHIPVYVRTGLDIKSAINPRDRDYLEVRTHPLMQRVLLAIEHLGFHLHKVDCEYTHYFGGAYPFVQELEFRPTGKYRHSLDELEVVFRLTADQLEVLLEIDKRARGWKGWLEEAFDIDERYARLIVKQSDLYETDVEALIDQIIQSHLS | not soluble |
| GPGSMSHKRPQSSAGESNGAVDLKTPRFDPVSLGLPAEFQLTDYTRLKGCSCKLPQPKLLALLQELSATPGQKDVGMDCSIVPLHHTNSKGEALFLVSTTDFFFPSVSDPFLQGQIGAANVLSDLYSMGIPDCDTMLMLLAASTEMDEHERLITTREIMKGFAERARLATTTVTGGQTVMNPWPLIGGVAMAVVSEAEMVRPTGLLCAGDILVLTKPLGCQVAVNLKQWLLRPSPLYEEAIAGHISPEEIEELYNMATDSMRRLNREGARLMRKHGAHGATDVTGFGILGHANNFGAAQAVGDAPRSLCLVLERLPMFKTAVAASKQMNDKYRLLEGYSAETSGGLLVAFPSTTAAAAFCAELTAVDGGCPSWIVGHVEDRATNAVDGVYARLKDGYEIVEV | soluble |
| MSLMKQIKHFNQNYQELRQLGKVAIGRRAGKLKAGTIILFAVDSQGKILAARKMQGVTVLAKFHPLPQYVNEDIHYMDHYHPLVQKENKLTQQAMENAREIYLRVELGNYQETQPLTPLNGAKIQWQLWKNKVQTKLKGSVEEGHHHHHH | not soluble |
| MTEEFEIAGISTGAWWSSPTNTAAVFSGYSLPCSTEISPDVTNFGWQNFDNKINDHNDGCMNMHNSFFEGLLIDPNDQLLPDPWSKSTIPNAKSELLENFPFLDNMFLVDSEAESLLDHEIRNHKSSKEQITQDYKNLTSKAQLEENSDEYSPRLLKRPRLETLSPLPSFKVRKEKLGDRITALQQLVSPFGKTDTASVLNEAVEYIKFLQEQVTVLSNPEQNTIGSVQQQQCSNKKSINTQGEVEEDECSPRRYVDLSSRGLCLMPISASYPVAAAAASAAEMNVHLVSGIFHSL | soluble |
| MPEKKSLLEVPPELVFSGPFDHVITTYMTLTNISQSPVCFLVKTTVPNSYCVRPNRGILNIGDSKQIEVMLQPLEKVPPDAKQHKFLVQSCVAPSIDVSDLESVWKNVKPDELTYNRLVVTFVDNTDSKSNIECEICTLEFSSVVDNQIPRILQCGHSICQSCASKLAKNCVILCPFCRNETNVSSVASLPKNFALLQAIDQKTLRVPPLEIAKLRQQLSCQLSKLEEQVSKTDKSIKAVGRAQLSNLKDGREFQERKDSIVSYYASIRETINALENEAIGKLHTIADMNVSKNALLVAELSEILKHQNLKIAELKLSMEMDDVELATRSLTDSGTECAVVKPAVLDVALTFPEIDKMALLSMTTKFPSNFSTV | not soluble |
| MLIAQEQEQSSISLLAEVSRAVNNEEDISKVLRLVLFILSEHMNMLRGMVTILNRTTGEMVINESFGLTDEQRQLARYKVGEGIIGQVVKTGRPSVVPRINEEPLFLDRTQSRAEENKEELCFICVPIKVGREVIGTLSADRRISVPAENGDKKLWRKSDRIDVLQYYVDLLSIIAAMIAQAVRIKQLDDEKS | not soluble |
| MAHHHHHHMASAEAEVAADMSAMWRYAEEARAGSSALSDLTYAERQAMLRAVAKALQTNEARILEANREDMVAAKANATADPLLRRLELTPSKLATLIEGISTLADMPDPIGQILSARELDNNLLLLKQTAPIGVVLVVFESRPESLPQIASLALCSGNGLLLKGGREGEHSNAVLHDLIVSAVESSTQGRVPRGVIGLVTNRADVYSLLQLDAHIDLVVPRGSNAMVQNIQRSTRIPVLGHADGICHVYVHKDADVDAALAVAIDAKLNYPAACNAAETLLLHRDLLHSPAHGTTAAQFLVNGMTEAGVSFYAGPQAIAAGLASELAASLHMEYGDAHMTVEVVDDLAAAIAHVNRHGSHHTDTILTVDKAAAAEFQRRVESACVFHNCSTRFADGFRFGLGAEVGISTARIHARGPVGVEGLLTQKWVLKPMGSLPQATEDGAAAAAANAPYATVAEFQKGQRVFTHKDVTRKLQDEAAGLRLQA | not soluble |
| SLIFILGIFYYLTQPLKSNSVVFIPQGSISQIITYLKQNKYQMSNIDKYILFFLGHPQSGWINIGTKDLNRAEFLHKLTIAKAALQTITLIPGETSVIFLEQAAKQLGLDKDILLKEFQAQAPYDEGVFLPETYKIPKGITENLLIQMLLNHAEISNKKTSEKIFGDYNPKKWHQYIIIASVIQKEAANDNEMPIVASVIYNRLKKGMKLQMDGTLNYGIYSHVKVTPQRIRQDNSFYNTYKFTGLPKEAVCNVSLAAIRAAIFPLKTDYLYFVRDKNTGVHIFSTNIDDHNKAINLQKGK | soluble |
| MNLRKPSAWTALALSISTGPAAAGTVTSATLAASTLSPDCLEYKVVGICYWLLCTPFGCKVKTSTKVRHYVPDAVVSSYSNTGENPWVEVSSLSSPTSFAQDGGDGTTSHNNEDNLAKFKNTDVIGHPGGATFSKFASASGYACQGAATPYMPYLLSTLDTIAWRYGVPESAYPEALIPGQREVGGLTSGDMWGSLYPRSGFIHQADDYKAAAVIAQRAGDVVTRRGQIHIYQPLLAKPQSGYWPAGELIETDASTGKWQELTPTLSQSCAVFPNSQPRVQATDGGYAWALWRPYSCCKRQGQTFLGSTDFQLEHHHHHH | not soluble |
| MTTVLLDSHVAYWWSAEPQRLSMAASQAIEHADELAVAAISWFELAWLAEQERIQLAIPVLSWLQQLAEHVRTVGITPSVAATAVALPSSFPGDPADRLIYATAIEHGWRLVTKDRRLRSHRHPRPVTVW | soluble |
| MIESNHVVLWNRCLEVIKDNVPETTYNTWFAPIVPLKYEDKTLIVQIPSQFFYEILEEKFVDLLRKTLYKAIGEGTKLMYNVMVDKTSIPNQTVNLEASNRSTAVTPKSIVGGNKAPSFLKAPAVQDLDPHLNPNYNFENFIEGYSNKLSRSVAEAVAQNPAGTAFNPLFLYGASGVGKTHLANAIGTKIKELYADKRVLYVSAHLFQVQYTDSVRNNTTNDFINFYQTIDVLIIDDIQEFAGVTKTQNTFFHIFNHLHQNGKQLILTSDRAPVLLQGMEERLLTRFKWGMVAELEKPTVELRKNILRNKIHRDGLQFPPEVIDYIAENVNESVRDLEGIVIAIMARSTIFNKEIDLDLAQHIVHGVVHNETKAVTIDDILKVVCKHFDLEASAIHTKSRKREVVQARQIAMYLAKNYTDFSTSKIGKFIGNKDHATVLHACKTVKGQLEVDKSFQAEVQEIESLLKKKALEHHHHHH | soluble |
| MAHHHHHHMCDPLVERFISDIIRDPQAWKRAVTSPDNRCCLLPTSNVIRSLAGPLFRRGCVDNVSSLRFLTTLRRDTLSGGNVQRVSMKRKDLRGPWDHRTRVSEEDQPNILIQLLVRQLERNGFGTSYRKAVYSLLGKQVKEMSKKKRQHDAAATAKTMKLNARRIEHLLMEEYNERKKTCDREGRRRQALVRGFFNKASVVVENEEFIGRRTIFQDALDECFAIKTLMEGETQKLTGIPPEHQRNYFAIQQKEKHERECLLARFETQRRAIYLQLQHDIKNSIKSEIRRIMRREKHIEELYKKHGCGK | not soluble |

From the DeepSol protein solubility set
